Reference: patent US20260199524

Assays:
[1] = target: Histone H3.3 (UniProt P84243)
[2] = target: Histone H4 (UniProt P62805)
[3] = target: Histone H3.1 (UniProt P68431)

wild type SIRT6 polypeptide (sirtuin 6)
histone acetylation/methylation PTM profile by LC-MS/MS in 3T3-L1 adipocytes [1]: significant difference between AdiWT and AdiCent at the levels of lysines (K) ... K27, K36 and K37 in H3.3
histone acetylation PTM profile by LC-MS/MS in 3T3-L1 adipocytes [2]: Overexpression of SIR6 wt or SIRT6cent in 3T3-L1 led to changes in the acetylation profiles of histones H3.1, H3.2 and H4
histone acetylation/methylation PTM profile by LC-MS/MS in 3T3-L1 adipocytes [3]: Overexpression of SIR6 wt or SIRT6cent in 3T3-L1 led to changes in the acetylation profiles of histones H3.1, H3.2 and H4
